In patent publication US10556944B2, “Fab region-binding peptide” (priority 2013, dated 2020):
Where no end group is shown, it is not given here.

Legend:
[1] = molecular target: T1, anti-TNFα antibody-Fab (IgG-Fab derived from anti-TNFα monoclonal antibody, adalimumab) (Homo sapiens, UniProt P01834+P01857); assay: Biacore 3000 surface plasmon resonance, affinity of SpG-β1 mutants for immobilized IgG-Fab; assay type: binding
T1 construct: cleaving a humanized monoclonal IgG formulation as a starting material into a Fab fragment and an Fc fragment by papain; purchased
Protocol: (§1) The affinity of each of the SpG-β1 mutants produced in Example 1 (2) for the IgG-Fab was analyzed by using a biosensor: Biacore 3000 using surface plasmon resonance principle (manufactured by GE Healthcare Bioscience). In this example, the IgG-Fab produced in Example 2 (1) was immobilized on a sensor chip and each peptide was added on the chip. The interaction between the IgG-Fab and the peptide was detected. The IgG-Fab was immobilized on the sensor chip CM5 by amine coupling using N-hydroxysuccinimide (NHS) and N-ethyl-N′-(3-dimethylaminopropyl)carbodiimide hydrochloride (EDC), and ethanolamine was used for blocking (all the sensor chips and the immobilization reagents were manufactured by GE Healthcare Bioscience). The IgG-Fab solution was about 10-fold diluted in an immobilization buffer (10 mM CH3COOH—CH3COONa, pH 4.5) and the IgG-Fab was immobilized on the sensor chip in accordance with the protocol attached to the Biacore 3000. Further, a reference cell to be used as a negative control was also prepared by immobilizing ethanolamine for another flow cell on the chip after activation by EDC/NHS. Various SpG-31 mutants were appropriately prepared at concentrations of 0.1 to 100 μM by using a running buffer (20 mM NaH2PO4—Na2HPO4, 150 mM NaCl, 0.005% P-20, pH 7.4). Each peptide solution was added on the sensor chip at a flow rate of 40 μL/minute for 60 seconds. A sensorgram of the binding reaction at 25° C. was sequentially plotted during the addition (binding phase, 60 seconds) and after the addition (dissociation phase, 60 seconds). After each sensorgram determination, the sensor chip was regenerated by adding 20 mM NaOH (for 30 seconds).
The affinity of the SpG-β1 mutant for the IgG-Fab was measured in the same manner as in the experiment of Example 2.
The affinity of the SpG-β1 mutant for the IgG-Fab was measured in the same manner as in the experiment of Example 3. In this experiment, the measurement was performed on the GST-cleaved type after the GST cleavage (Pep-). Further, not only one domain type (Pep.1d) but also one domain type with Cys at the C-terminus (Pep.1dC) and two domain type with Cys at the C-terminus (Pep.2dC) were used to perform the experiment.

[2] = system: anti-Her2antibody-Fab (IgG-Fab derived from anti-Her2 monoclonal antibody, Trastuzumab); assay: as above; assay type: binding, human; conditions: Table 1, Example 2, GST-fused one-domain peptide; for kon: 25° C., pH 7.4; for KA: KA=kon/koff, 1:1 binding model; for KA Vs. Wild: fold of wild-type KA
Protocol: The Fab fragment was prepared by cleaving a humanized monoclonal IgG formulation as a starting material into a Fab fragment and an Fc fragment by papain, and separating and purifying only the Fab fragment.
Specifically, a humanized monoclonal IgG formulation (Herceptin, manufactured by Chugai Pharmaceutical Co., Ltd., in the case of anti-Her2 monoclonal antibody) was dissolved in a papain digestion buffer (0.1 M AcOH—AcONa, 2 mM EDTA, 1 mM cysteine, pH 5.5). Papain immobilized agarose: Papain Agarose from papaya latex (manufactured by Sigma) was added to the solution and the mixture was incubated at 37° C. for about 8 hours while being mixed with a rotator. The IgG-Fab was collected from flow-through fractions by affinity chromatography using a KanCapA column (manufactured by Kaneka Corporation). Thus, the IgG-Fab was separated and purified from the reaction solution (containing both the Fab fragment and the Fc fragment), which had been separated from the papain immobilized agarose. The separated IgG-Fab solution was purified by gel filtration chromatography using the Superdex 75 10/300 GL column (a standard buffer was used for equilibration and separation) to obtain an IgG-Fab solution.
as §1

[3] = Table 1, Example 2, GST-fused one-domain peptide, 25° C., pH 7.4
[4] = Table 1, Example 2, GST-fused one-domain peptide, KA=kon/koff, 1:1 binding model
[5] = Table 1, Example 2, fold of wild-type KA, GST-fused one-domain peptide
[6] = Table 2, Example 3, GST-fused one-domain peptide
[7] = Table 2, Example 3, GST-fused one-domain peptide, 25° C., pH 7.4
[8] = Table 2, Example 3, fold of wild-type KA, GST-fused one-domain peptide
[9] = Table 3, Example 4, GST-cleaved type (Pep-), constructs Pep.1d, Pep.1dC, Pep.2dC
[10] = Table 3, Example 4, fold of wild-type KA of the same construct type

Row | Substance | KA [1, 6] [M⁻¹] | kon [1, 7] [s/M] | KA Vs. Wild [1, 8] | koff [1, 7] [s⁻¹] | other results
1 | K13T/E19I/V39I: GST-fused one-domain SpG-β1 mutant, amino acid SEQ ID NO: 19 (TTYKLILNGKTLTGETTTIAVDAATAEKVFKQYANDNGIDGEWTYDDATKTFTVTE; also: GST-fused) | – | – | – | – | kon [1, 3]: 145000 s/M; KA [1, 4]: 2.74e+06 M⁻¹; KA Vs. Wild [1, 5]: 4.3; kon [2]: 222000 s/M; KA [2]: 2.83e+06 M⁻¹; KA Vs. Wild [2]: 5.2
2 | K13T/E19I/F30L: GST-fused one-domain SpG-β1 mutant, amino acid SEQ ID NO: 15 (TTYKLILNGKTLTGETTTIAVDAATAEKVLKQYANDNGVDGEWTYDDATKTFTVTE; also: GST-fused) | – | – | – | – | kon [1, 3]: 92300 s/M; KA [1, 4]: 1.8e+06 M⁻¹; KA Vs. Wild [1, 5]: 2.8; kon [2]: 141000 s/M; KA [2]: 1.99e+06 M⁻¹; KA Vs. Wild [2]: 3.6
3 | K13S/E19I/F30L: GST-fused one-domain SpG-β1 mutant, amino acid SEQ ID NO: 29 (TTYKLILNGKTLSGETTTIAVDAATAEKVLKQYANDNGVDGEWTYDDATKTFTVTE; also: GST-fused, end not given here) | 2.23e+06 | 137000 | 6.0 | – | –
4 | K13T/E19I/K28I/F30L/Y33F/E42Q/D47Y: GST-fused one-domain SpG-β1 mutant, amino acid SEQ ID NO: 59 (TTYKLILNGKTLTGETTTIAVDAATAEIVLKQFANDNGVDGQWTYDYATKTFTVTE; also: GST-fused) | 1.45e+06 | 91000 | 3.9 | 0.0063 | –
5 | K13T/T18A/E19V/F30L/Y33F: GST-fused one-domain SpG-β1 mutant, amino acid SEQ ID NO: 67 (TTYKLILNGKTLTGETTAVAVDAATAEKVLKQFANDNGVDGEWTYDDATKTFTVTE; also: GST-fused) | 2.85e+06 | 93600 | 7.6 | 0.0033 | –
6 | K13T/E19I/F30L/Y33F/V39I/D47H: GST-fused one-domain SpG-β1 mutant, amino acid SEQ ID NO: 23 (TTYKLILNGKTLTGETTTIAVDAATAEKVLKQFANDNGIDGEWTYDHATKTFTVTE; also: GST-fused) | 2.06e+06 | 79400 | 5.5 | 0.0039 | –
7 | K10R/K13T/E15Q/K28R/F30L/D36G/E42V: GST-fused one-domain SpG-β1 mutant, amino acid SEQ ID NO: 69 (TTYKLILNGRTLTGQTTTEAVDAATAERVLKQYANGNGVDGVWTYDDATKTFTVTE; also: GST-fused, end not given here) | 3.3e+06 | 115000 | 8.8 | 0.0035 | –
8 | Pep.1dC K13T/T18A/E19I/V21A/K28I/F30L/Y33F/V39I: SpG-β1 mutant, SEQ ID NO: 85, GST-cleaved one domain type with Cys at the C-terminus (TTYKLILNGKTLTGETTAIAADAATAEIVLKQFANDNGIDGEWTYDDATKTFTVTE; C-terminal Cys; SpG mutant) | – | – | – | – | KA [1, 9]: 9.11e+06 M⁻¹; koff [1, 9]: 0.0097 s⁻¹; kon [1, 9]: 88300 s/M; KA Vs. Wild [1, 10]: 51
9 | Pep.1d K13T/E19I/V21D/T25M/F30L/Y33F/N35F/D47A (TTYKLILNGKTLTGETTTIADDAAMAEKVLKQFAFDNGVDGEWTYDAATKTFTVTE) | – | – | – | – | KA [1, 9]: 4.24e+06 M⁻¹; koff [1, 9]: 0.0257 s⁻¹; kon [1, 9]: 109000 s/M; KA Vs. Wild [1, 10]: 29; KA Vs. Wild ([1]; Table 3, Example 4, fold of wild-type KA of the same construct type, listed as Pep-SpGβ1-K13T/E19I/V21D/T25M/F30L/Y33F/N35F/D47A.1d): ~30; affinity / binding ability for the IgG-Fab compared with the wild-type (in words) ([1]; Tables 1 and 3, FIGS. 2 and 3): significantly higher affinity for the IgG-Fab than Pep-SpGβ1-Wild.1d
10 | K13T/E19I/K28I/F30L/N35F: GST-fused one-domain SpG-β1 mutant, amino acid SEQ ID NO: 57 (TTYKLILNGKTLTGETTTIAVDAATAEIVLKQYAFDNGVDGEWTYDDATKTFTVTE; also: GST-fused) | 1.4e+06 | 88000 | 3.7 | 0.0063 | –
11 | K13T/F30L/D36G (TTYKLILNGKTLTGETTTEAVDAATAEKVLKQYANGNGVDGEWTYDDATKTFTVTE) | – | – | – | – | KA [2]: 3.17e+06 M⁻¹; KA Vs. Wild [2]: 5.8
12 | K10R/K13T/K28Q/F30L/Q32R: GST-fused one-domain SpG-β1 mutant, amino acid SEQ ID NO: 17 (TTYKLILNGRTLTGETTTEAVDAATAEQVLKRYANDNGVDGEWTYDDATKTFTVTE; also: GST-fused, end not given here) | – | – | – | – | KA [2]: 1.72e+06 M⁻¹; KA Vs. Wild [2]: 3.2
13 | K13T/E15Q/E19I/E27D/V39I/D47H: GST-fused one-domain SpG-β1 mutant, amino acid SEQ ID NO: 77 (TTYKLILNGKTLTGQTTTIAVDAATADKVFKQYANDNGIDGEWTYDHATKTFTVTE; also: GST-fused) | 1.85e+06 | 124000 | 4.9 | 0.0067 | –
14 | K13S/E19V/F30L/Y33F: GST-fused one-domain SpG-β1 mutant, amino acid SEQ ID NO: 81 (TTYKLILNGKTLSGETTTVAVDAATAEKVLKQFANDNGVDGEWTYDDATKTFTVTE; also: GST-fused, end not given here) | 1.54e+06 | 98400 | 4.1 | 0.0064 | –
15 | K13T/V21I/A23T/F30L/E42L: GST-fused one-domain SpG-β1 mutant, amino acid SEQ ID NO: 25 (TTYKLILNGKTLTGETTTEAIDTATAEKVLKQYANDNGVDGLWTYDDATKTFTVTE; also: GST-fused) | 1.44e+06 | 85000 | 3.9 | – | –
16 | Pep.1dC K13T/E19I/V21D/T25M/F30L/Y33F/N35F/D47A (TTYKLILNGKTLTGETTTIADDAAMAEKVLKQFAFDNGVDGEWTYDAATKTFTVTE) | – | – | – | – | KA [1, 9]: 5.47e+06 M⁻¹; koff [1, 9]: 0.0137 s⁻¹; kon [1, 9]: 74700 s/M; KA Vs. Wild [1, 10]: 31
17 | K13T/E15Q/E19V/F30L/V39L: GST-fused one-domain SpG-β1 mutant, amino acid SEQ ID NO: 61 (TTYKLILNGKTLTGQTTTVAVDAATAEKVLKQYANDNGLDGEWTYDDATKTFTVTE; also: GST-fused) | 1.42e+06 | 89800 | 3.8 | 0.0063 | –
18 | K13T/E19I/D22E/A24T/F30L/Y33F/D47G: GST-fused one-domain SpG-β1 mutant, amino acid SEQ ID NO: 79 (TTYKLILNGKTLTGETTTIAVEATTAEKVLKQFANDNGVDGEWTYDGATKTFTVTE; also: GST-fused) | 1.32e+06 | 69500 | 3.5 | 0.0053 | –
19 | K13T/V21A/F30L/Y33F/D40E: GST-fused one-domain SpG-β1 mutant, amino acid SEQ ID NO: 51 (TTYKLILNGKTLTGETTTEAADAATAEKVLKQFANDNGVEGEWTYDDATKTFTVTE; also: GST-fused) | 1.78e+06 | 139000 | 4.8 | 0.0078 | –
